Data on five molecules can be found in patent KR20200098329A (dated 2020).

Where a chain is given by its changes, count along the chain named.

Assay [1] deals with T1, GST-Bag Full (GST와 융합된 전장 BAG2 폴리펩티드) (human, UniProt O95816 1-211).
T1 construct: Expressed in HEK293T cells, detected in lysate at about 50 kDa by immunoblot; not shown: GST tag, about 26 kDa, of the pcDNA3.1+/GST vector (NovoPro Bioscience)
Description: immunoblot on lysate of HEK293T cells with the GST-Bag Full vector, signal at about 50 kDa. (In general: Immunoblotting shows a protein as a band on a membrane.)

For assay [2], the target named is T2, 인간 BAG2 단백질 (human, UniProt O95816 2-211, limits assumed).
T2 construct: also called BAG2 폴리펩티드; human BAG2
Kind of assay: immunoblot screening of hybridomas.

For assay [3], the target named is T2, 인간 BAG2 단백질. Description: immunoblot on MDA-MB-231 cell lysate.

T1 sequence (O95816 whole entry): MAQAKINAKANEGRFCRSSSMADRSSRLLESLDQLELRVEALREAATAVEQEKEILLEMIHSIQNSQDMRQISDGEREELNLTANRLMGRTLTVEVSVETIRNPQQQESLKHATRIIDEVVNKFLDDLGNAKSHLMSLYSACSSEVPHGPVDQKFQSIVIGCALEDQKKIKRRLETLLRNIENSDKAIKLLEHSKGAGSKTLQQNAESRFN
T2 sequence (O95816 2-211 limits assumed): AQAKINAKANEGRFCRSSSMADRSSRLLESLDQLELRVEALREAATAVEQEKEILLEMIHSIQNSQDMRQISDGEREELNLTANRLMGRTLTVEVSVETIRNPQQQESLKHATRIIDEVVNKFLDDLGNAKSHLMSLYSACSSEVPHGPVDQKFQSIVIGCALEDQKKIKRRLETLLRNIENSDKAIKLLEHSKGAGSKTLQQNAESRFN

B1: 2A11 항체 (antibody, V domains shown)
VH: QVQLQQPGAELVRPGASVTLSCKASGYTFTDYEMHWVKQTPVHGLEWIGIIDPETGGTAYNQKFKGKATLTADKSSSTAYMELRSLTSEDSAVYYCTRGKFYYSGRDYAMDYWGQGTSVTVSS
VL: DVLMTQTPLSLPVSLGDQASISCRSSQSIVHSNGNTYLEWYLQKPGQSPKLLIYKVSNRFSGVPDRFSGSGSGTDFTLKISRVEAEDLGVYFCFQGSQVPPTFGGGTKLEIK
notes: Mouse monoclonal antibody from a hybridoma; also called 항-BAG2 항체 2A11
For the molecule B1, the binding result (in assay [1]; with 인간 BAG2 단백질 [2]) was “binds” each time.

B2: 8C4 항체 (antibody, V domains shown)
VH: B1 VH with G56A
VL: B1 VL with I53F
notes: Mouse monoclonal antibody from a hybridoma; also called 항-BAG2 항체 8C4
For B2, the binding result (in assay [1]; with 인간 BAG2 단백질 [3]) was “binds” each time.

B3: 4C2 항체 (antibody, V domains shown)
VH: B1 VH with G57A
VL: B1 VL with I53F
notes: Mouse monoclonal antibody from a hybridoma; also called 항-BAG2 항체 4C2
B3: the binding result (in assay [1]; with 인간 BAG2 단백질 [3]) was “binds” each time.

B4: 3G8 항체 (antibody, V domains shown)
VH: QIQLVQSGPELKKPGETVKISCKASGYSFTKYGMNWVKQAPGKDIKWMGWINTNTGEATYGEEVKGRFAFSLETSASTAYLQINNLKNEDTATYFCARLGLRYLDYWGQGTTLTVSS
VL: DIVMTQSPASLVVSLGQRATISCRASKSVSTSDYSYMHWYQQKPGQPPKVLIYLASNLESGVPARFSGSGSGTDFTLNIHPVEEEDAATYYCQHNRELPPTFGAGTKLELK
notes: Mouse monoclonal antibody from a hybridoma; Biotinylated when used as detecting antibody in the sandwich ELISA; also called 항-BAG2 항체 3G8
Turning to B4, the binding result (in assay [1]; with 인간 BAG2 단백질 [3]) was “binds” in each case.

B5: 3F12 항체 (antibody, V domains shown)
VH: QVQLQESGPDLVKPSQSLSLTCTVTGYSITSGYSWHWIRQFPGNKLEWMGYIYYRGSTNYNPSLKSRISITRDTSKNQFFLLLKSVTTEDTATYYCAREAYWGQGTLVTVSA
VL: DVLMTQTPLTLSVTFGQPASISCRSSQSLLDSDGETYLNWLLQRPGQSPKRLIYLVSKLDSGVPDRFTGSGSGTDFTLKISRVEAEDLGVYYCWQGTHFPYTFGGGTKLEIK
notes: Mouse monoclonal antibody from a hybridoma; Biotinylated when used as detecting antibody in the sandwich ELISA; also called 항-BAG2 항체 3F12
Consider B5, for which the binding result (in assay [1]; with 인간 BAG2 단백질 [2]) was “binds” each time.
